What all share (experiment): EC50 of free RNA motif oligo competing protein binding to immobilised probe
The target in one data set is HSP90AB2P (UniProt Q58FF8). In a few lines:
(§1)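 HEK293-FT lysate (2.5 mg protein/well) was pre-incubated 1 h at 4°C with free RNA oligos (0 nM to 30 μM), then 30 min at 4°C with the same 5′-amino-C6 oligos coupled to NHS-Sepharose beads. Bound proteins were quantified by label-free LC-MS/MS in three biological replicates and two independent experiments, and normalised to the water control. EC50 came from a four-parameter log-logistic fit; Kd is EC50 times a protein-dependent depletion factor.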

In another data set the target is RPL7 (UniProt P18124). In a few lines: as §1
The target of a further data set is T1, ERI3 (UniProt O43414).
T1 sequence: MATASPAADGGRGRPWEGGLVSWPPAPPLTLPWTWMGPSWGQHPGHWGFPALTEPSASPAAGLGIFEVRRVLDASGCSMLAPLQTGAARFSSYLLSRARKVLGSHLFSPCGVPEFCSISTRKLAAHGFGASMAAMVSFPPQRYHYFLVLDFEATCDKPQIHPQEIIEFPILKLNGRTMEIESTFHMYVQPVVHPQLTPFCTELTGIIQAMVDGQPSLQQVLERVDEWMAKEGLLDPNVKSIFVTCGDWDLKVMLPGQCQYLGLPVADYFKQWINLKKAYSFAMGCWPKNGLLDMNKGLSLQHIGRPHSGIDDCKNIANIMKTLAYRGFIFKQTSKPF
The gist of the method: as §1

Another data set addresses T2, TIA1 (UniProt P31483).
T2 sequence: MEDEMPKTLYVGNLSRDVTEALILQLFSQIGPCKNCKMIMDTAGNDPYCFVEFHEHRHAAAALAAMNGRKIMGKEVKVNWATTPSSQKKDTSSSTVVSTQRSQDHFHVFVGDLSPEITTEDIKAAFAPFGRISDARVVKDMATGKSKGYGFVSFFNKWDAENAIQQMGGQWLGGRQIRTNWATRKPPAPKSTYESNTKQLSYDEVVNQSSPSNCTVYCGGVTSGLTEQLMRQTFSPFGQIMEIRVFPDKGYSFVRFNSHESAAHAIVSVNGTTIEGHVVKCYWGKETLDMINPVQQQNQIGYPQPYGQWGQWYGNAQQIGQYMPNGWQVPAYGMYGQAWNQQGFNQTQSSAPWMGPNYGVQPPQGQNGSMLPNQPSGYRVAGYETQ
The gist of the method:
as §1

Another data set deals with T3, IFIT5 (UniProt Q13325).
T3 sequence: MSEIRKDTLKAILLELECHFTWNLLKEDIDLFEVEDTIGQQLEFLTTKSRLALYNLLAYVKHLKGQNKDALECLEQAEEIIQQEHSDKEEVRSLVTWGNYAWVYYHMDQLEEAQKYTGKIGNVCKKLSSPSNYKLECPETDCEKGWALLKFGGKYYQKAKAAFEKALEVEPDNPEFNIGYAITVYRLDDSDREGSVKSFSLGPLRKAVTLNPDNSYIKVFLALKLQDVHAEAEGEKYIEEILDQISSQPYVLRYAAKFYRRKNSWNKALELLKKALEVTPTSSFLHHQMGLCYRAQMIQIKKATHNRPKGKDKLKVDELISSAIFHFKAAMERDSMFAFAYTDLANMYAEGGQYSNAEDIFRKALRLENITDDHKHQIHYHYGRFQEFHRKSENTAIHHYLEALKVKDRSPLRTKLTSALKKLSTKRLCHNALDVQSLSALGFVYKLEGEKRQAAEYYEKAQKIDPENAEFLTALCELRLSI
The gist of the method: as §1

A further data set deals with T4, SRSF7 (UniProt Q16629).
T4 sequence: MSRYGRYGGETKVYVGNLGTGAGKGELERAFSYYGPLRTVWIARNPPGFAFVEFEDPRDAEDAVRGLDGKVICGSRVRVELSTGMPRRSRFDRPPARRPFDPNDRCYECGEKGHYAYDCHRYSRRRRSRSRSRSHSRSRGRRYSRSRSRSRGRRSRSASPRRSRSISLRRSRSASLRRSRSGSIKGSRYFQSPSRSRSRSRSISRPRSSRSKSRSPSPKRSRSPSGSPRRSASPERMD
The gist of the method:
as §1

For the next data set, the target named is T5, FASTKD2 (UniProt Q9NYY8).
T5 sequence: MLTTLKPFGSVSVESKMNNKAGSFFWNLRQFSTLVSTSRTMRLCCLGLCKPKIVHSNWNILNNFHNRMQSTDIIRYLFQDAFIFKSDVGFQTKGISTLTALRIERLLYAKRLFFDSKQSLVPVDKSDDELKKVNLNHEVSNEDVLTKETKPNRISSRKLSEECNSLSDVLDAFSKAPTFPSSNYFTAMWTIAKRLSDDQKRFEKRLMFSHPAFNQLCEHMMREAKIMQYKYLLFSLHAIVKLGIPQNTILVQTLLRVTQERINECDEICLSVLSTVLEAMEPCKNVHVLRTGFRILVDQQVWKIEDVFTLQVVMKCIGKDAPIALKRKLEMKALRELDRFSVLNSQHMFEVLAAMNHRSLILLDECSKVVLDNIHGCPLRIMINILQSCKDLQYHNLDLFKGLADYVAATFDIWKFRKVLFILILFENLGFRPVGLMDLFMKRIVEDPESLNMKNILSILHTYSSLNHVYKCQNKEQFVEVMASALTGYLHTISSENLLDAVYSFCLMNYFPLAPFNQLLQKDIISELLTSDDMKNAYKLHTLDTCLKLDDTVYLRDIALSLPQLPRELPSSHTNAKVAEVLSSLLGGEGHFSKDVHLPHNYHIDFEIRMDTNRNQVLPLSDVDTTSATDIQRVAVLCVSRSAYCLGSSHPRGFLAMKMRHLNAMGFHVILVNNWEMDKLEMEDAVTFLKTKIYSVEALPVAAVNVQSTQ
The gist of the method: as §1

The EC50 is the concentration that produces a half-maximal response.

Sequence of HSP90AB2P (Q58FF8 whole entry): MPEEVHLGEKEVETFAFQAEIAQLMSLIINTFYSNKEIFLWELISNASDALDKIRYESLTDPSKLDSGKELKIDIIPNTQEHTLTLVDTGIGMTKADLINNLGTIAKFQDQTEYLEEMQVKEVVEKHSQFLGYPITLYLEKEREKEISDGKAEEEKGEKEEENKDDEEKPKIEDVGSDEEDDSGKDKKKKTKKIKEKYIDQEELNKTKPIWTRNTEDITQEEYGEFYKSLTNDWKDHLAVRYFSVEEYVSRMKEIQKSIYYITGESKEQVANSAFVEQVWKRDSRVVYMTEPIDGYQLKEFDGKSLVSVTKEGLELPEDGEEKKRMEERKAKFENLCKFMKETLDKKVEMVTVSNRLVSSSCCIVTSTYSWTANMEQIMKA

On to AAUAAA, for which the EC50 in the data set with HSP90AB2P is 129 nM; in the data set with RPL7 it was 6980 nM; with ERI3, 1970 nM; with TIA1, 2110 nM; with IFIT5 it was 1190 nM.

In the case of CUGUCCU, the EC50 with SRSF7 was found to be 3020 nM.

In the data set with FASTKD2, UAUUUAU displayed an EC50 of 7860 nM.

The record behind these values is the supplement of paper PMC6379048.
